Reference: PMC7849366 (Genes & Development, 2021)

Target: full-length recombinant MYC-KEAP1 (human, UniProt Q14145 1-624)
Assay: pull-down

full-length recombinant MYC-KEAP1, sequence (Q14145 whole entry): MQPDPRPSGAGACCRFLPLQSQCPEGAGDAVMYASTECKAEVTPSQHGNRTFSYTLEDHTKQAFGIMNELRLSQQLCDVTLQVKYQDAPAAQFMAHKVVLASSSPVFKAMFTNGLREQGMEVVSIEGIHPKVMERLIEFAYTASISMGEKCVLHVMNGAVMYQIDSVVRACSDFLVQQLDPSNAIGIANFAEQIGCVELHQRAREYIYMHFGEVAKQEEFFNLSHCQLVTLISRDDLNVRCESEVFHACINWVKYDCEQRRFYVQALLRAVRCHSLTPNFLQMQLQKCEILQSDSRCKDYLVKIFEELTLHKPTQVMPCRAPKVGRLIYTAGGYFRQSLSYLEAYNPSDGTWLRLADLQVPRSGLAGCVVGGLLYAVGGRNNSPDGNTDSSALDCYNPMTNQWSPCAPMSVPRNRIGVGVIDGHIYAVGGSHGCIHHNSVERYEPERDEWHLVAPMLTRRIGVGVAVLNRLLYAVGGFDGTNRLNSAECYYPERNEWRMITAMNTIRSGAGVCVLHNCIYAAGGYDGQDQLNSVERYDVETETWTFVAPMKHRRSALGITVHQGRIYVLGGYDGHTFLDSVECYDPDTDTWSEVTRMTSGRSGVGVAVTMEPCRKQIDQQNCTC

Kd: 2.87 nM
B1: full-length recombinant GST-ATDC (natural protein)
chain: MEAADASRSNGSSPEARDARSPSGPSGSLENGTKADGKDAKTTNGHGGEAAEGKSLGSALKPGEGRSALFAGNEWRRPIIQFVESGDDKNSNYFSMDSMEGKRSPYAGLQLGAAKKPPVTFAEKGELRKSIFSESRKPTVSIMEPGETRRNSYPRADTGLFSRSKSGSEEVLCDSCIGNKQKAVKSCLVCQASFCELHLKPHLEGAAFRDHQLLEPIRDFEARKCPVHGKTMELFCQTDQTCICYLCMFQEHKNHSTVTVEEAKAEKETELSLQKEQLQLKIIEIEDEAEKWQKEKDRIKSFTTNEKAILEQNFRDLVRDLEKQKEEVRAALEQREQDAVDQVKVIMDALDERAKVLHEDKQTREQLHSISDSVLFLQEFGALMSNYSLPPPLPTYHVLLEGEGLGQSLGNFKDDLLNVCMRHVEKMCKADLSRNFIERNHMENGGDHRYVNNYTNSFGGEWSAPDTMKRYSMYLTPKGGVRTSYQPSSPGRFTKETTQKNFNNLYGTKGNYTSRVWEYSSSIQNSDNDLPVVQGSSSFSLKGYPSLMRSQSPKAQPQTWKSGKQTMLSHYRPFYVNKGNGIGSNEAP
